Measurements: the supplement of paper PMC7877785
± gives the uncertainty stated by the source.

Assay: self-splicing fitness, log relative to wild type (ln ratio); higher = more splicing; Tetrahymena group I intron in knt gene, E. coli kanamycin selection, DiMSum; sequences stand for … in CUCUCU…GGAGGGAAAAGUUAUCAGGCAUGCACCUGGUAGCUAGUCUUUAAACCAAUAGAUUGCAUCGGUUUAAAAGGCAAGACCGUCAAAUUGCGGGAAAGGGGUCAACAGCCGUUCAGUACCAAGUCUCAGGGGAAACUUUGAGAUGGCCUUGCAAAGGGUAUGGUAAUAAGCUGACGGACAUGGUCCUAACCACGCAGCCAAGUCCUAAGUCAACAGAUCUUCUGUUGAUAUGGAUGCAGUUCACAGACUAAAUGUCGGUCGGGGAAGAUGUAUUCUUCUCAUAAGAUAUAGUCGGACCUCUCCUUAAUGGGAGCUAGCGGAUGAAGUGAUGCAACACUGGAGCCGCUGGGAACUAAUUUGUAUGCGAAAGUAUAUUGAUUAGUUUUGGAGUACUCGUGGUCG
Outline: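 Pooled colonies went to amplicon sequencing on an Illumina HiSeq 2500 after six replicate transformations. The plates were LB agar with 100 μg/mL carbenicillin, 50 μM IPTG and 0.2% rhamnose, with or without 25 μg/mL kanamycin, incubated overnight at 37°C or 30°C. The E. coli BL21(DE3) library had all eight P1ex-region intron nucleotides randomised, the intron placed in the knt kanamycin-resistance gene on pET-22b(+). DiMSum fitness is the error-weighted combination of replicate fold changes, kanamycin against none, normalised to wild type.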

Sequence: AUGUAGCAAUAUUACGGAUG
- self-splicing fitness (ln) (30 °C): -3.13 ± 0.31
- self-splicing fitness (ln) (37 °C): -2.82 ± 0.41

Sequence: AUGUAGCAAUAUUACGGCCG
- self-splicing fitness (ln) (30 °C): -2.32 ± 0.31
- self-splicing fitness (ln) (37 °C): -0.303 ± 0.33

Sequence: AUGUAGCAAUAUUACGGCUC
- self-splicing fitness (ln) (30 °C): 0.231 ± 0.27

Sequence: AUGUAGCAAUAUUACGGGAA
- self-splicing fitness (ln) (30 °C): -2.34 ± 0.38
- self-splicing fitness (ln) (37 °C): -3.07 ± 0.47

Sequence: AUGUAGCAAUAUUACGGGCG
- self-splicing fitness (ln) (30 °C): -1.33 ± 0.091
- self-splicing fitness (ln) (37 °C): -1.28 ± 0.1

Sequence: AUGUAGCAAUAUUACGGGGC
- self-splicing fitness (ln) (30 °C): -4.82 ± 0.34
- self-splicing fitness (ln) (37 °C): -2.87 ± 0.19

Sequence: AUGUAGCAAUAUUACGGUCA
- self-splicing fitness (ln) (30 °C): -0.793 ± 0.14
- self-splicing fitness (ln) (37 °C): -0.745 ± 0.13

Sequence: AUGUAGCAAUAUUACGGUGC
- self-splicing fitness (ln) (30 °C): -2.55 ± 0.3

Sequence: AUGUAGCAAUAUUACGUACU
- self-splicing fitness (ln) (30 °C): -0.0156 ± 0.06
- self-splicing fitness (ln) (37 °C): -0.16 ± 0.073

Sequence: AUGUAGCAAUAUUACGUAGA
- self-splicing fitness (ln) (30 °C): -3.11 ± 0.32
- self-splicing fitness (ln) (37 °C): -2.65 ± 0.29

Sequence: AUGUAGCAAUAUUACGUCGG
- self-splicing fitness (ln) (30 °C): -3.01 ± 0.35
- self-splicing fitness (ln) (37 °C): -2.18 ± 0.28

Sequence: AUGUAGCAAUAUUACGUGAC
- self-splicing fitness (ln) (30 °C): -4.13 ± 0.34
- self-splicing fitness (ln) (37 °C): -0.782 ± 0.2

Sequence: AUGUAGCAAUAUUACGUGCU
- self-splicing fitness (ln) (30 °C): -1.29 ± 0.081
- self-splicing fitness (ln) (37 °C): -0.985 ± 0.09

Sequence: AUGUAGCAAUAUUACGUUAA
- self-splicing fitness (ln) (30 °C): -3.07 ± 0.22
- self-splicing fitness (ln) (37 °C): -2.3 ± 0.14

Sequence: AUGUAGCAAUAUUACGUUGU
- self-splicing fitness (ln) (30 °C): -3.85 ± 0.15
- self-splicing fitness (ln) (37 °C): -1.27 ± 0.092

Sequence: AUGUAGCAAUAUUACGUUUC
- self-splicing fitness (ln) (30 °C): -2.86 ± 0.24
- self-splicing fitness (ln) (37 °C): -2.55 ± 0.26

Sequence: AUUAAGCAAUAUUACGACGG
- self-splicing fitness (ln) (30 °C): -2.32 ± 0.23
- self-splicing fitness (ln) (37 °C): -2.54 ± 0.41

Sequence: AUUAAGCAAUAUUACGACGU
- self-splicing fitness (ln) (30 °C): 0.564 ± 0.087
- self-splicing fitness (ln) (37 °C): 0.495 ± 0.093

Sequence: AUUAAGCAAUAUUACGACUC
- self-splicing fitness (ln) (30 °C): 0.675 ± 0.23
- self-splicing fitness (ln) (37 °C): -0.203 ± 0.36

Sequence: AUUAAGCAAUAUUACGAGCG
- self-splicing fitness (ln) (30 °C): -0.827 ± 0.1
- self-splicing fitness (ln) (37 °C): -0.58 ± 0.13

Sequence: AUUAAGCAAUAUUACGAUAA
- self-splicing fitness (ln) (30 °C): -1.48 ± 0.12
- self-splicing fitness (ln) (37 °C): -0.391 ± 0.14

Sequence: AUUAAGCAAUAUUACGAUUG
- self-splicing fitness (ln) (30 °C): -2.98 ± 0.15
- self-splicing fitness (ln) (37 °C): -1.86 ± 0.2

Sequence: AUUAAGCAAUAUUACGCAAU
- self-splicing fitness (ln) (30 °C): -1.74 ± 0.13
- self-splicing fitness (ln) (37 °C): -2.34 ± 0.23

Sequence: AUUAAGCAAUAUUACGCCAU
- self-splicing fitness (ln) (30 °C): -1.86 ± 0.2
- self-splicing fitness (ln) (37 °C): -1.52 ± 0.15

Sequence: AUUAAGCAAUAUUACGCCUC
- self-splicing fitness (ln) (30 °C): -2.77 ± 0.18
- self-splicing fitness (ln) (37 °C): -1.42 ± 0.16

Sequence: AUUAAGCAAUAUUACGCGUC
- self-splicing fitness (ln) (30 °C): -2.77 ± 0.3
- self-splicing fitness (ln) (37 °C): -2.19 ± 0.38

Sequence: AUUAAGCAAUAUUACGCGUU
- self-splicing fitness (ln) (30 °C): -1.78 ± 0.11
- self-splicing fitness (ln) (37 °C): -0.33 ± 0.12

Sequence: AUUAAGCAAUAUUACGCUGA
- self-splicing fitness (ln) (30 °C): -2.36 ± 0.41
- self-splicing fitness (ln) (37 °C): -0.862 ± 0.28

Sequence: AUUAAGCAAUAUUACGCUGG
- self-splicing fitness (ln) (30 °C): -1.25 ± 0.12
- self-splicing fitness (ln) (37 °C): -1.39 ± 0.22

Sequence: AUUAAGCAAUAUUACGGAAG
- self-splicing fitness (ln) (30 °C): -3.07 ± 0.17
- self-splicing fitness (ln) (37 °C): -1.29 ± 0.2

Sequence: AUUAAGCAAUAUUACGGGAA
- self-splicing fitness (ln) (30 °C): -2.09 ± 0.26
- self-splicing fitness (ln) (37 °C): -1.43 ± 0.23

Sequence: AUUAAGCAAUAUUACGGUAG
- self-splicing fitness (ln) (30 °C): -4.09 ± 0.29
- self-splicing fitness (ln) (37 °C): -2.57 ± 0.22

Sequence: AUUAAGCAAUAUUACGGUCC
- self-splicing fitness (ln) (30 °C): -0.321 ± 0.14
- self-splicing fitness (ln) (37 °C): -0.358 ± 0.19

Sequence: AUUAAGCAAUAUUACGGUGG
- self-splicing fitness (ln) (30 °C): -3.17 ± 0.28
- self-splicing fitness (ln) (37 °C): -1.94 ± 0.22

Sequence: AUUAAGCAAUAUUACGUACC
- self-splicing fitness (ln) (30 °C): -2.05 ± 0.23
- self-splicing fitness (ln) (37 °C): 0.0479 ± 0.26

Sequence: AUUAAGCAAUAUUACGUCAA
- self-splicing fitness (ln) (30 °C): -2.1 ± 0.22
- self-splicing fitness (ln) (37 °C): -0.766 ± 0.16

Sequence: AUUAAGCAAUAUUACGUGAA
- self-splicing fitness (ln) (30 °C): -1.55 ± 0.14
- self-splicing fitness (ln) (37 °C): -1.5 ± 0.11

Sequence: AUUAAGCAAUAUUACGUGGA
- self-splicing fitness (ln) (30 °C): -3.32 ± 0.2
- self-splicing fitness (ln) (37 °C): -1.05 ± 0.12
